From PMC8050779

Key:
[1] = target: oxytocin ion channel-coupled receptor with the T4 phage lysozyme domain, OXTR(T4L) fused to Kir6.2 (not stated | T4 phage) (UniProt P30559)
[2] = target: oxytocin ion channel-coupled receptor with the T4 phage lysozyme domain, OXTR(T4L) fused to Kir6.2 (not stated | T4 phage) (UniProt P30559); remark: listed apart in the source

oxytocin, sequence (P01178 whole entry, looked up, the tested form may be a part): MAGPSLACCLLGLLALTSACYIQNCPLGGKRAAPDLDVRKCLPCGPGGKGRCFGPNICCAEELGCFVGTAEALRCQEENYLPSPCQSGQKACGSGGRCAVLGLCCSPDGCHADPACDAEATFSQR
UniProt P30559, sequence (P30559 whole entry, looked up, the tested form may be a part): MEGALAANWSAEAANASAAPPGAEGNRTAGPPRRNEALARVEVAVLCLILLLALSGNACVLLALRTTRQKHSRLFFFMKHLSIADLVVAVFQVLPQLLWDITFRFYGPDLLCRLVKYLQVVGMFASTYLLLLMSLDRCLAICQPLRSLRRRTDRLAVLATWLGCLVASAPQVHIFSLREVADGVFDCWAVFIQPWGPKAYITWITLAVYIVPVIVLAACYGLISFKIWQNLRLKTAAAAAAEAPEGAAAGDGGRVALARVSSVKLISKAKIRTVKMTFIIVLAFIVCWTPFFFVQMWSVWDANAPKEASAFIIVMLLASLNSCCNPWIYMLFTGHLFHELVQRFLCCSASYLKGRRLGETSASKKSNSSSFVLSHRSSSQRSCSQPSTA

- ICCR activation by 1 μM oxytocin, TEVC, after cholesterol depletion and repletion with cholesterol (% of the control before incubation) [1]: 70
- ICCR activation by 1 μM oxytocin, TEVC, after cholesterol depletion and repletion with cholesteryl hemi-succinate (CHS) (% of the control level before incubation) [1]: 45
- amplitude of ICCR activation by 1 μM oxytocin, TEVC, after co-incubation with 20 mM MβCD and 5 μM oxytocin for at least 3 h and washing (% of the basal current) [2]: 100
- amplitude of ICCR activation by 1 μM oxytocin, TEVC, control without MβCD (Buffer + 5 μM oxytocin, at least 3 h) (% of the basal current) [2]: 120
Substance: oxytocin (from UniProt P01178 20-28) (peptide)
